Data published in patent US20210333284A1, “METHODS AND MATERIALS FOR LARGE-SCALE ASSESSMENT OF LIGAND BINDING SELECTIVITY OF G-QUADRUPLEX RECOGNITION USING CUSTOM G4 MICROARRAYS” (Purdue Research Foundation, priority 2020, published 2021).

B1: DHX36: GST-tagged human DHX36/G4R1/MLEL1 helicase (protein, listed as Homo sapiens)
chain: MSYDYHQNWGRDGGPRSSGGGYGGGPAGGHGGNRGSGGGGGGGGGGRGGRGRHPGHLKGREIGMWYAKKQGQKNKEAERQERAVVHMDERREEQIVQLLNSVQAKNDKESEAQISWFAPEDHGYGTEVSTKNTPCSENKLDIQEKKLINQEKKMFRIRNRSYIDRDSEYLLQENEPDGTLDQKLLEDLQKKKNDLRYIEMQHFREKLPSYGMQKELVNLIDNHQVTVISGETGCGKTTQVTQFILDNYIERGKGSACRIVCTQPRRISAISVAERVAAERAESCGSGNSTGYQIRLQSRLPRKQGSILYCTTGIILQWLQSDPYLSSVSHIVLDEIHERNLQSDVLMTVVKDLLNFRSDLKVILMSATLNAEKFSEYFGNCPMIHIPGFTFPVVEYLLEDVIEKIRYVPEQKEHRSQFKRGFMQGHVNRQEKEEKEAIYKERWPDYVRELRRRYSASTVDVIEMMEDDKVDLNLIVALIRYIVLEEEDGAILVFLPGWDNISTLHDLLMSQVMFKSDKFLIIPLHSLMPTVNQTQVFKRTPPGVRKIVIATNIAETSITIDDVVYVIDGGKIKETHFDTQNNISTMSAEWVSKANAKQRKGRAGRVQPGHCYHLYNGLRASLLDDYQLPEILRTPLEELCLQIKILRLGGIAYFLSRLMDPPSNEAVLLSIRHLMELNALDKQEELTPLGVHLARLPVEPHIGKMILFGALFCCLDPVLTIAASLSFKDPFVIPLGKEKIADARRKELAKDTRSDHLTVVNAFEGWEEARRRGFRYEKDYCWEYFLSSNTLQMLHNMKGQFAEHLLGAGFVSSRNPKDPESNINSDNEKIIKAVICAGLYPKVAKIRLNLGKKRKMVKVYTKTDGLVAVHPKSVNVEQTDFHYNWLIYHLKMRTSSIYLYDCTEVSPYCLLFFGGDISIQKDNDQETIAVDEWIVFQSPARIAHLVKELRKELDILLQEKIESPHPVDWNDTKSRDCAVLSAIIDLIKTQEKATPRNFPPRFQDGYYS
modifications: GST tag
notes: GST-tagged human DHX36/G4R1/MLEL1 helicase
B2: FANCJ: GST-tagged human BRCA1-binding helicase-like protein / Fanconi anemia group J protein (protein, listed as Homo sapiens)
chain: MSSMWSEYTIGGVKIYFPYKAYPSQLAMMNSILRGLNSKQHCLLESPTGSGKSLALLCSALAWQQSLSGKPADEGVSEKAEVQLSCCCACHSKDFTNNDMNQGTSRHFNYPSTPPSERNGTSSTCQDSPEKTTLAAKLSAKKQASIYRDENDDFQVEKKRIRPLETTQQIRKRHCFGTEVHNLDAKVDSGKTVKLNSPLEKINSFSPQKPPGHCSRCCCSTKQGNSQESSNTIKKDHTGKSKIPKIYFGTRTHKQIAQITRELRRTAYSGVPMTILSSRDHTCVHPEVVGNFNRNEKCMELLDGKNGKSCYFYHGVHKISDQHTLQTFQGMCKAWDIEELVSLGKKLKACPYYTARELIQDADIIFCPYNYLLDAQIRESMDLNLKEQVVILDEAHNIEDCARESASYSVTEVQLRFARDELDSMVNNNIRKKDHEPLRAVCCSLINWLEANAEYLVERDYESACKIWSGNEMLLTLHKMGITTATFPILQGHFSAVLQKEEKISPIYGKEEAREVPVISASTQIMLKGLFMVLDYLFRQNSRFADDYKIAIQQTYSWTNQIDISDKNGLLVLPKNKKRSRQKTAVHVLNFWCLNPAVAFSDINGKVQTIVLTSGTLSPMKSFSSELGVTFTIQLEANHIIKNSQVWVGTIGSGPKGRNLCATFQNTETFEFQDEVGALLLSVCQTVSQGILCFLPSYKLLEKLKERWLSTGLWHNLELVKTVIVEPQGGEKTNFDELLQVYYDAIKYKGEKDGALLVAVCRGKVSEGLDFSDDNARAVITIGIPFPNVKDLQVELKRQYNDHHSKLRGLLPGRQWYEIQAYRALNQALGRCIRHRNDWGALILVDDRFRNNPSRYISGLSKWVRQQIQHHSTFESALESLAEFSKKHQKVLNVSIKDRTNIQDNESTLEVTSLKYSTPPYLLEAASHLSPENFVEDEAKICVQELQCPKIITKNSPLPSSIISRKEKNDPVFLEEAGKAEKIVISRSTSPTFNKQTKRVSWSSFNSLGQYFTGKIPKATPELGSSENSASSPPRFKTEKMESKTVLPFTDKCESSNLTVNTSFGSCPQSETIISSLKIDATLTRKNHSEHPLCSEEALDPDIELSLVSEEDKQSTSNRDFETEAEDESIYFTPELYDPEDTDEEKNDLAETDRGNRLANNSDCILAKDLFEIRTIKEVDSAREVKAEDCIDTKLNGILHIEESKIDDIDGNVKTTWINELELGKTHEIEIKNFKPSPSKNKGMFPGFK
modifications: GST tag

Columns and labels:
[1] = test system: G4 sequences and non-G4 ssDNA controls on Design 3 microarray; assay: Custom G4 DNA microarray, direct binding by fluorescence intensity; parameters: species or system human
Text: Three Agilent DNA microarrays (TABLE 1) were designed, each with four identical sectors that contain ca.177,440 ssDNA 60-mers to examine G4-binding specificity. Arrays were designed with 9-73 replicates of each unique sequence to ensure statistical significance (TABLE 1). Each microarray contains different sets of G4 variants designed to examine several sequence parameters that affect G4 formation and binding specificity such as loop length (Design 1), loop sequence (Design 2), tail sequence (Design 2), and single nucleotide variants of six known G4s (Design 3). All microarrays include a set of 19 sequences from human telomeres and oncogene promoters known to form G4s with various topologies as positive controls (TABLE 2). Designs 2 and 3 have a set of 295 additional G4-forming sequences from the literature.^30 For the loop length variants, the length of the tails and loops of four different MYC G4 sequences (MYC Pu27, MYC Pu18ntd, MYC Pu22, and MYC Pu22 NMR mutant) was increased up to five times their length. Loop and tail sequences were varied using A, T, G, and C polynucleotide stretches and a subset of combinations. For the loop sequence variants, 4,096 sequences of the form NGGGNGGGNNGGGNGGGN (SEQ ID NO: 2) and 64 variants of the form GGGNGGGNGGGNGGG (SEQ ID NO: 1) were generated. For the tail variants, 256 versions of the major MYC G4 with all possible dinucleotide tails ([…] (SEQ ID NO: 3)) were generated. […]
The binding specificities of several molecules were evaluated. […] Binding of each molecule is measured by detection of fluorescence intensity at each of the microarray features. […] Cellular proteins were expressed as chimeric proteins containing GST, and binding for these proteins was detected using an anti-GST antibody conjugated with Cy5 (Materials and Methods). […] For Cy5-PDS, robust binding is observed at 1 μM, with fluorescence intensities ranging over 100-fold between strongest and weakest bound DNA features. The fluorescence-binding intensities of Cy5-PDS are proportional to the concentration of pyridostatin used). […]

[2] = test system: genomic G4 sequences (folded G4 structures); assay: G4 microarray binding in potassium vs lithium; parameters: species or system human; conditions: GST-tagged proteins
Description: The binding specificities of several molecules were evaluated. Microarrays were preincubated with 100 mM potassium chloride to induce G4 formation. Binding of each molecule is measured by detection of fluorescence intensity at each of the microarray features. BG4 and pyridostatin were conjugated with Cy5. Cellular proteins were expressed as chimeric proteins containing GST, and binding for these proteins was detected using an anti-GST antibody conjugated with Cy5 (Materials and Methods). G4 Structures Fold on DNA Microarrays. To evaluate the utility of DNA microarrays to examine G4-binding specificity, a Cy5-labeled pyridostatin (Cy5-PDS), a small molecule known to bind broadly to G4 structures, was synthesized.^13 A Cy5 conjugated version of BG4 (Cy5-BG4), an antibody developed to bind G4s, was also obtained.^31 FIG. 1A, B presents replicate binding intensities to 15,491 DNA sequences on the Design 3 microarray using either Cy5-PDS or Cy5-BG4. For Cy5-PDS, robust binding is observed at 1 μM, with fluorescence intensities ranging over 100-fold between strongest and weakest bound DNA features. The fluorescence-binding intensities of Cy5-PDS are proportional to the concentration of pyridostatin used). […] Antibody binding to non-G4 features increases with higher concentrations, and in some cases non-G4 sequences are more strongly bound by Cy5-BG4 than G4 sequences, including multiple cytosine-rich negative control sequences. Inhibition of G4 Formation Inhibits Cy5-PDS and Cy5-BG4 Binding. Cy5-PDS and Cy5-BG4 binding under conditions that inhibit G4 formation was examined to evaluate if G4 structures form on the microarray and are required for binding. […] It is noted that many sequences, in addition to the oncogene G4 sequences, are capable of forming G4s. […] For Cy5-BG4, the decrease in binding was up to 270-fold for genomic G4 sequences, while binding to negative controls decreased up to 23-fold (FIG. 1D,). In a second experiment, Cy5-PDS binding following a primer extension reaction that produces dsDNA^24 was examined (see Materials and Methods), anticipating that dsDNA would predominate over G4 formation^13. […] 2,27,28
Microarrays were preincubated with a 100 mM potassium chloride solution for 1 h at RT to induce G4 formation. Protein binding microarray experiments were then performed as previously described.^23 Microarrays were blocked with 4% nonfat dry milk in a potassium phosphate buffer before incubation with proteins or small molecules. Expressed proteins were blocked with 4% nonfat dry milk, ssDNA, and BSA. For the validation experiments, microarrays were also treated with 100 mM lithium chloride to inhibit G4 formation. For experiments examining dsDNA, single-stranded DNA probes were made double-stranded using a primer complementary to a 24-mer constant sequence following the method described previously.^23,24 Double stranding efficiency was monitored using 4% Cy3-dCTP.
Protein or molecule-bound microarrays were scanned with the G5761A SureScan Dx Microarray Scanner System (Agilent) to detect a Cy5 signal at two laser settings (30 and 100 PMT) to ensure signal intensities were below saturation. Spot intensities from microarray images were extracted using the Agilent Feature Extraction Software and are reported as raw fluorescence units. All binding assays were performed at least twice, with high agreement between replicates (R>0.8). Microarrays with the fewest number of saturated spots were used for further analysis. Median intensity was then computed for probes containing identical sequence on each microarray. […]

| Molecule | binding specificity, G4 vs non-G4 ssDNA sequences [1] | effect of lithium chloride (inhibiting G4 formation) on protein binding [2] |
| --- | --- | --- |
| B1 | bind only G4 sequences | weakened binding |
| B2 | also bind other ssDNAs in addition to folded G4s | weakened binding |
